In patent US20210395344A1 (TWIST BIOSCIENCE, published 2021):
Positions count from the first letter of the chain named.

B1: SARS-CoV-2 variant 1-10 (antibody, V domains shown)
VH: EVQLLESGGGLVQPGGSLRLSCAASGFTFSSYDMSWVRQAPGKGLEWVSVISGSGGSTYYADSVKGRFTISRDNSKNTLYLQMNSLRAEDTAVYYCAKGPLVGWYFDLWGQGTLVTVSS
VL: QSALTQPASVSGSPGQSITISCTGTSSNVGSYNLVSWYQQHPGKAPKLMIYEGTKRPSGVSNRFSGSKSGNTASLTISGLQAEDEADYYCCSYAGSSSFVVFGGGTKLTVL
B2: SARS-CoV-2 variant 1-47 (antibody, V domains shown)
VH: EVQLLESGGGLVQPGGSLRLSCAASGFTFSSQAMSWVRQAPGKGLEWVSAISGSGGGTYYADSVKGRFTISRDNSKNTLYLQMNSLRAEDTAVYYCAKDRRFGEFDPWGQGTLVTVSS
VL: B1 VL with N28G, T54I
B3: SARS-CoV-2 variant 1-8 (antibody, V domains shown)
VH: B1 VH
VL: QSALTQPASVSGSPGQSITISCTGTSNDVGSYNLVSWYQQHPGKAPKLMIYEGSKRPSGVSNRFSGSKSGNTASLTISGLQAEDEADYYCCSYAGSRYVVFGGGTKLTVL
B4: SARS-CoV-2 variant 1-7 (antibody, V domains shown)
VH: B1 VH
VL: B1 VL with N28D, V29F, T54N, S98T
B5: SARS-CoV-2 variant 1-9 (antibody, V domains shown)
VH: B1 VH
VL: B1 VL with N28D, S31D, T54S, K55N
B6: SARS-CoV-2 variant 1-28 (antibody, V domains shown)
VH: EVQLLESGGGLVQPGGSLRLSCAASGFTFSSYGMSWVRQAPGKGLEWVSAISGSGGGTYYADSVKGRFTISRDNSKNTLYLQMNSLRAEDTAVYYCASSSSWQFDYWGQGTLVTVSS
VL: B1 VL with N28G, T54S, K55Q, S98T, F99H, V100Y
B7: SARS-CoV-2 variant 1-38 (antibody, V domains shown)
VH: EVQLLESGGGLVQPGGSLRLSCAASGITFSSYAMSWVRQAPGKGLEWVSGISGSGGSTYYADSVKGRFTISRDNSKNTLYLQMNSLRAEDTAVYYCAKHGSGTIFGVVIAKYYFDYWGQGTLVTVSS
VL: B3 VL with N27S, V29I, S54T, Y98T, V99Y
B8: SARS-CoV-2 variant 1-17 (antibody, V domains shown)
VH: EVQLLESGGGLVQPGGSLRLSCAASGFTFSSYAMYWVRQAPGKGLEWVSAISGSAGSTYYADSVKGRFTISRDNSKNTLYLQMNSLRAEDTAVYYCARDTNDFWSGYSIFDPWGQGTLVTVSS
VL: B3 VL with N27S, V29I, S54T, Y98T, V99Y
B9: SARS-CoV-2 variant 1-29 (antibody, V domains shown)
VH: B8 VH
VL: B3 VL with N27S, V29I, S54T, Y98T, V99Y
B10: SARS-CoV-2 variant 1-42 (antibody, V domains shown)
VH: B7 VH with I27V, G50A, S52T
VL: B3 VL with N27S, S31R, S54G, G95S, R97S, Y98T, V99L
B11: SARS-CoV-2 variant 1-22 (antibody, V domains shown)
VH: EVQLLESGGGLVQPGGSLRLSCAASGFTFSSYAMNWVRQAPGKGLEWVSIISGSGGSTYYADSVKGRFTISRDNSKNTLYLQMNSLRAEDTAVYYCAREGYRDYLWYFDLWGQGTLVTVSS
VL: QSALTQPASVSGSPGQSITISCTGTSTDVGSYNLVSWYQQHPGKAPKLMIYEGSQRPSGVSNRFSGSKSGNTASLTISGLQAEDEADYYCCSYAGSSTVFGGGTKLTVL
B12: SARS-CoV-2 variant 1-21 (antibody, V domains shown)
VH: B11 VH with A33T, N35S
VL: QSALTQPASVSGSPGQSITISCTGTSSDVGSNNLVSWYQQHPGKAPKLMIYEGNKRPSGVSNRFSGSKSGNTASLTISGLQAEDEADYYCCSYAGSVVFGGGTKLTVL
B13: SARS-CoV-2 variant 1-23 (antibody, V domains shown)
VH: B11 VH with M34I, N35S
VL: B11 VL with T27N, S54N, Q55K, S97Y
B14: SARS-CoV-2 variant 1-24 (antibody, V domains shown)
VH: B11 VH
VL: B11 VL with T27S, S31Y, S54N, Q55K, S96G, T98V

molecular target: T1, COVID S1 RBM Fc fusion (Antigen 2) (SARS-CoV-2, UniProt P0DTC2 437-508); assay: phage ELISA
T1 construct: domain: RBM

Binder | specificity ELISA, fold over background [fold over background] | specificity ELISA, percent binding relative to Acro S1 [%]
B1 | 1.1 | 6.2
B2 | 0.9 | 11.1
B3 | 1.2 | 10.3
B4 | 1.6 | 23
B5 | 1 | 9.3
B6 | 1.2 | 124
B7 | 1.2 | 101
B8 | 1.3 | 5.2
B9 | 0.9 | 78.3
B10 | 1 | 4.2
B11 | 1.5 | 4.7
B12 | 1.4 | 7
B13 | 1.6 | 32
B14 | 1.3 | 10.3

molecular target: T2, COVID S1 RBD Fc fusion (Antigen 1) (SARS-CoV-2, UniProt P0DTC2 319-541); assay: phage ELISA
T2 construct: domain: RBD

Binder | specificity ELISA, fold over background [fold over background] | specificity ELISA, percent binding relative to Acro S1 [%]
B1 | 17.4 | 100
B2 | 5.5 | 68.9
B3 | 11.2 | 92.9
B4 | 3.3 | 48.7
B5 | 9.8 | 91.1
B7 | 1.5 | 128
B8 | 20.1 | 79.8
B10 | 20.8 | 91.4
B11 | 26.5 | 81.2
B12 | 14.8 | 75.7
B13 | 3.6 | 70.9
B14 | 11 | 85.4

molecular target: T3, SARS-CoV-2 S1 (subunit 1) protein (SARS-CoV-2, UniProt P0DTC2 16-685); assay: phage ELISA
T3 construct: also called biotinylated SARS-CoV-2 S1

Binder | screening ELISA (Avg), fold over background [fold over background]
B1 | 16.9
B2 | 22.6
B3 | 19.3
B4 | 22.5
B5 | 18.5
B6 | 17.7
B7 | 20.2
B8 | 27.4
B9 | 23.8
B10 | 34.5
B11 | 40.6
B12 | 47.6
B13 | 23.1
B14 | 32.9

molecular target: S1-Fc (SARS-CoV-2, UniProt P0DTC2 16-685); assay: phage ELISA

Binder | specificity ELISA, fold over background [fold over background] | specificity ELISA, percent binding relative to Acro S1 [%]
B6 | 1.1 | 110
B7 | 0.9 | 82.8
B9 | 1 | 94
B13 | 1.6 | 31.1
